Results from patent US20260209320A1 (ALCHEMAB THERAPEUTICS, published 2026).
Substitutions are numbered along the chain they refer to.

T1: human lysozyme (human, UniProt P61626 19-148)
T1 sequence (looked up): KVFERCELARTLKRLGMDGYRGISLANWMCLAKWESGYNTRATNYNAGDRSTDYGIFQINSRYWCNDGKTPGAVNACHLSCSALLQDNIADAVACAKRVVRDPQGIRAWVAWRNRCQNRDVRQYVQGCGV

T2: Murine HTT antigen (murine)
T2 construct: antigen of the murine HTT direct ELISA; also called murine HTT protein
T2 chain: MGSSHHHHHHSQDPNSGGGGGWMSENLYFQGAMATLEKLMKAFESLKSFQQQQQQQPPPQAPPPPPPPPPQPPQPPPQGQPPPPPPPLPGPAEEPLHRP

B1: ATL_0005059/NI-302.8F1 (antibody, V domains shown)
VH: EVQLVESGGGLVKPGGSLTISCAASGFTFSNAWMNWVRQAPGKGLEWVGHIRTQAEGGTSDYAAPVKGRFTISRDDSKNTLYLQMNSLKTEDTAVYYCIPPPYYYYYGLDVWGQGTTVTVSS
VL: QSALTQPASVSGSPGQSITISCTGASSDVGTYDLVSWYQQHPGKAPKLIIYEVNKRPSGVSYRFSASKSANTASLTISGLQAEDEAEYYCCSYAGYSTVFGGGTKLTVL
notes: also called ATL_5059; CA_0000274
B2: ATL_0005895 (antibody, V domains shown)
VH: EVQLVESGGGLVKPGGSLRLSCAASGFTFNKAWMSWVRQAPGKGLEWVGRIKSGIDAGTTDYAAPVKGRFTISRDDSKNTLYLQMNSLKTEDTAVYYCIPPPYYYYYGLDVWGQGTTVTVSS
VL: QSALTQPRSVSGSPGQSVTISCTGTSSDVGSYNLVSWYQQHPGKAPKLMIYEVNKRPSGVPDRFSGSKSGATASLTISGLQAEDEADYYCGSYAGTANVFGTGTKVTVL
notes: human IgG1; also called ATL_5895; ATL5895
B3: ATL_0005567 (antibody, V domains shown)
VH: B2 VH with S35N, A57G, K67Q, L81V, K89N
VL: QSALTQPASVSGSPGQSITISCTGTSSDIGSYNLVSWYQQHPGNAPKPLIYEGSKRPSGVSARFSGSKSGNTASLTISGLQPEDEADYYCSSYAGFSTLVFGGGTKVTVL
notes: human IgG1; also called ATL_5567; ATL5567
B4: ATL_0005901 (antibody, V domains shown)
VH: B2 VH with N79A
VL: QSALTQPASVSGSPGQSITISCTGTSSDVGGYKLVSWYQQHPGRAPKLMIYEVSKRPSGVSSRFSGSKSGSTASLTISGLQAEDEADYYCSSYAGSSVVFGGGTKLTVL
notes: human IgG1; also called ATL_5901; ATL5901

Experiments:
[1] = target: T3, Mutant Human HTT Exon 1 48Q (GST) (human); assay: HTT sandwich ELISA, average of repeats
T3 construct: recombinant His- and GST-tagged fusion; also called HTT Exon 1 Q48; 48Q HTT Exon-1

[2] = target: T4, WT Human HTT Exon 1 25Q (GST) (human); assay: HTT sandwich ELISA, biological repeat 2
T4 construct: recombinant His- and GST-tagged fusion; also called Wild type Huntingtin (HTT) exon 1

[3] = target: T3, Mutant Human HTT Exon 1 48Q (GST); assay: HTT sandwich ELISA, biological repeat 1
[4] = target: T3, Mutant Human HTT Exon 1 48Q (GST); assay: HTT sandwich ELISA, biological repeat 2
[5] = target: T3, Mutant Human HTT Exon 1 48Q (GST); assay: HTT sandwich ELISA, biological repeat 3
[6] = target: T4, WT Human HTT Exon 1 25Q (GST); assay: HTT sandwich ELISA, average (one repeat assessed)
[7] = target: T3, Mutant Human HTT Exon 1 48Q (GST); assay: HTT sandwich ELISA; EC50 on HTT Exon 1 25Q over EC50 on HTT Exon 1 48Q
human lysozyme = target: T1, human lysozyme; assay: direct ELISA
CACNA1A = target: T5, CACNA1A (human, UniProt O00555 1-2506); assay: Retrogenix cell microarray, HEK293 cells
T5 construct: whole, on cells; also called Another poly Q protein

Murine HTT antigen = target: T2, Murine HTT antigen; assay: direct ELISA on coated murine HTT antigen
[8] = target: T4, WT Human HTT Exon 1 25Q (GST); assay: HTT sandwich ELISA, average of repeats
[9] = target: T4, WT Human HTT Exon 1 25Q (GST); assay: HTT sandwich ELISA, biological repeat 1
[10] = target: T4, WT Human HTT Exon 1 25Q (GST); assay: HTT sandwich ELISA, biological repeat 3

T3 sequence (chain, as listed by the source mutant limits assumed): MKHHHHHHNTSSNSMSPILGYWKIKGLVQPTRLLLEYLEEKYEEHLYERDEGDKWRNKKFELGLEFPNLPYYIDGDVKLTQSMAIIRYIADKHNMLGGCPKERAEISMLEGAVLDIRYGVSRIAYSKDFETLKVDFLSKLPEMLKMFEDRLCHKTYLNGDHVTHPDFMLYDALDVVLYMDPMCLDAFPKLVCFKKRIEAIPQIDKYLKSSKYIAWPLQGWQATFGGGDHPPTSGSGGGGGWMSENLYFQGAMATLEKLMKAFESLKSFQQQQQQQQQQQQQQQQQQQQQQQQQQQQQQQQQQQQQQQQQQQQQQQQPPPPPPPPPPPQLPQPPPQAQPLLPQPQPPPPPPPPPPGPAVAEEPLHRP
T4 sequence (chain, as listed by the source limits assumed, change not shown): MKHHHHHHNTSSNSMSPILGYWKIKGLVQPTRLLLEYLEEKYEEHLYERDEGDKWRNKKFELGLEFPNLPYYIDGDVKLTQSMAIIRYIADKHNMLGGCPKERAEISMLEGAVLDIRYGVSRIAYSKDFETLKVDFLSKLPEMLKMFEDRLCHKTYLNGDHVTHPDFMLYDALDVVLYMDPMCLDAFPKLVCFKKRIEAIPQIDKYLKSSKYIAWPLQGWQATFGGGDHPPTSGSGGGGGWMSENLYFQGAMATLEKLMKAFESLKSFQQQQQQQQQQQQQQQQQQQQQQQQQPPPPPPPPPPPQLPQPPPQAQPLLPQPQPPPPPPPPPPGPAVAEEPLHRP
T5 sequence (O00555 whole entry): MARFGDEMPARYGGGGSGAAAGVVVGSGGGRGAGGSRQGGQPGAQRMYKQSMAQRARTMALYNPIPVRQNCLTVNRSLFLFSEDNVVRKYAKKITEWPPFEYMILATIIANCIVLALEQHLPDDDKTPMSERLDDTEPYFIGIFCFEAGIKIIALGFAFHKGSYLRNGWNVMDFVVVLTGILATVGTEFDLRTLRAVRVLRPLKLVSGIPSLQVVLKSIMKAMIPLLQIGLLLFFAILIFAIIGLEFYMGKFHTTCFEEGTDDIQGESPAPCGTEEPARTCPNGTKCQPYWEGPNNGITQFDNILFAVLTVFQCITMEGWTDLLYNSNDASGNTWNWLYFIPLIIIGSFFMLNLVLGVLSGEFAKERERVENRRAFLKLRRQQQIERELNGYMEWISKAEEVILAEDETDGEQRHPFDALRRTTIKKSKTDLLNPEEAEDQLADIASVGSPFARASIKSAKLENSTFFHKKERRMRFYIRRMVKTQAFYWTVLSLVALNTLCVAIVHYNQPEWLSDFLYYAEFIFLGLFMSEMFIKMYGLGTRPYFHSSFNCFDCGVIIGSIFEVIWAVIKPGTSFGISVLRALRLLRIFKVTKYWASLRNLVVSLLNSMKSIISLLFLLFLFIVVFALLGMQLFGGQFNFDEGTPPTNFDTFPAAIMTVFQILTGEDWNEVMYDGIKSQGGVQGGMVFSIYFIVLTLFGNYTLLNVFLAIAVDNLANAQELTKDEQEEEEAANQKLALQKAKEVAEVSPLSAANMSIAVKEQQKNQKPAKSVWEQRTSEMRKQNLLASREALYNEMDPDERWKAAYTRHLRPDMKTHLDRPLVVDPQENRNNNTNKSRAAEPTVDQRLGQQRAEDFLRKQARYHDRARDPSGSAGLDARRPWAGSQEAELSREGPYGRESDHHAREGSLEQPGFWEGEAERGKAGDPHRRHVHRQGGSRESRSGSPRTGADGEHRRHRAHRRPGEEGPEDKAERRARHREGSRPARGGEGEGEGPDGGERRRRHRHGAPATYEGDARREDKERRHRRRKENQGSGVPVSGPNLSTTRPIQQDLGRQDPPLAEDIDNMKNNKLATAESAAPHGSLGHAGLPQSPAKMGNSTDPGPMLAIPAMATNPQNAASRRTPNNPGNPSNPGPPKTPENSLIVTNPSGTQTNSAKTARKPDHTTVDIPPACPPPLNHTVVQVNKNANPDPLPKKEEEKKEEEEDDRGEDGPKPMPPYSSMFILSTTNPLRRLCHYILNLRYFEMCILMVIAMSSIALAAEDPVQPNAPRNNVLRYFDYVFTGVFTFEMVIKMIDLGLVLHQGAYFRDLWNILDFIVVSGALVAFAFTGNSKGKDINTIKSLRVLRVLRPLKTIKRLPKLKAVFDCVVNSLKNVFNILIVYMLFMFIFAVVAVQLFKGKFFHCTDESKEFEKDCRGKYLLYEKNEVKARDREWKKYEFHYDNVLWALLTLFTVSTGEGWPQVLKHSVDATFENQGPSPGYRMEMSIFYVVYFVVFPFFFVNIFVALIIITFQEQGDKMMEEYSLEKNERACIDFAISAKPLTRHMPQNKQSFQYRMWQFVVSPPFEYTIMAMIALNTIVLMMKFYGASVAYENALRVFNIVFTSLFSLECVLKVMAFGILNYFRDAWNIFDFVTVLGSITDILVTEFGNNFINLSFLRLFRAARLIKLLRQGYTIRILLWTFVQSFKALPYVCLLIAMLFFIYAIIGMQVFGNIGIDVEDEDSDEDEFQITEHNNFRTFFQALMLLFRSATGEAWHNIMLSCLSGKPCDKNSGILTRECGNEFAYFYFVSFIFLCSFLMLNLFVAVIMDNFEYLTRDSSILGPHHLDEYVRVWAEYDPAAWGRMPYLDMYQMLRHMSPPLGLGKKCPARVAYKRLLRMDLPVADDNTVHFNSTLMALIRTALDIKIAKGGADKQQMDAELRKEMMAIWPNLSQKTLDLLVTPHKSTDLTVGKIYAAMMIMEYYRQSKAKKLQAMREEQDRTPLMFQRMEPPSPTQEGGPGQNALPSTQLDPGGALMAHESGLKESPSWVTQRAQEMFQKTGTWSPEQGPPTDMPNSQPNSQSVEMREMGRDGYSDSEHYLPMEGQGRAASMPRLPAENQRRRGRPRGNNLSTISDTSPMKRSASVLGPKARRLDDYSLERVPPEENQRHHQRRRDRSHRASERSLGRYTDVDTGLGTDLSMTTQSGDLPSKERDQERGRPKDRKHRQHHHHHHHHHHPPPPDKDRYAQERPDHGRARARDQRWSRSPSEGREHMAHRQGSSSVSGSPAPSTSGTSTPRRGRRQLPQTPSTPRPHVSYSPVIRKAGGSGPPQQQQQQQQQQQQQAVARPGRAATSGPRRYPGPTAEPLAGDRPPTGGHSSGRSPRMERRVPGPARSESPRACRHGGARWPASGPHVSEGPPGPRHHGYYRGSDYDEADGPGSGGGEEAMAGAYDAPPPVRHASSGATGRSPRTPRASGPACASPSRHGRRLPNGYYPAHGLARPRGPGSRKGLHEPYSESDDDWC

Binder | EC50 [1] | EC50 [2] | EC50 [3] | EC50 [4] | EC50 [5] | EC50 [6] | Ratio of EC50 for 25Q:48Q HTT Exon 1 [7] | binding result (human lysozyme) | binding result (CACNA1A) | binding result (Murine HTT antigen) | EC50 [8] | EC50 [9] | EC50 [10]
B1 | 17.3 nM | 19.3 nM | 18.1 nM | 16.2 nM | 17.5 nM | 19.3 nM | 1.12 | – | – | – | – | – | –
B2 | 2.08 nM | 3.91 nM | 0.731 nM | 3.83 nM | 3.2 nM | – | 1.79 | no binding (tested: less than 1 µM) | no binding (tested: 2 µg/mL antibody) | binds | 3.71 nM | 2.97 nM | 4.39 nM
B3 | 6.39 nM | 9.63 nM | 8.7 nM | 6.55 nM | 4.59 nM | – | 1.18 | – | no binding (tested: 5 µg/mL antibody) | – | 7.57 nM | – | 5.95 nM
B4 | 2.4 nM | 4.52 nM | 1.25 nM | – | 4.59 nM | – | 2.05 | – | – | – | 4.92 nM | 5.59 nM | 4.73 nM
